Experimental data: publication PMC4132019

Biological target: CRM1-HA (chromosome region maintenance 1) (human (HeLa cell cDNA)) (UniProt O14980)
Experiment: pull-down

Chain of UniProt O14980 (O14980 whole entry): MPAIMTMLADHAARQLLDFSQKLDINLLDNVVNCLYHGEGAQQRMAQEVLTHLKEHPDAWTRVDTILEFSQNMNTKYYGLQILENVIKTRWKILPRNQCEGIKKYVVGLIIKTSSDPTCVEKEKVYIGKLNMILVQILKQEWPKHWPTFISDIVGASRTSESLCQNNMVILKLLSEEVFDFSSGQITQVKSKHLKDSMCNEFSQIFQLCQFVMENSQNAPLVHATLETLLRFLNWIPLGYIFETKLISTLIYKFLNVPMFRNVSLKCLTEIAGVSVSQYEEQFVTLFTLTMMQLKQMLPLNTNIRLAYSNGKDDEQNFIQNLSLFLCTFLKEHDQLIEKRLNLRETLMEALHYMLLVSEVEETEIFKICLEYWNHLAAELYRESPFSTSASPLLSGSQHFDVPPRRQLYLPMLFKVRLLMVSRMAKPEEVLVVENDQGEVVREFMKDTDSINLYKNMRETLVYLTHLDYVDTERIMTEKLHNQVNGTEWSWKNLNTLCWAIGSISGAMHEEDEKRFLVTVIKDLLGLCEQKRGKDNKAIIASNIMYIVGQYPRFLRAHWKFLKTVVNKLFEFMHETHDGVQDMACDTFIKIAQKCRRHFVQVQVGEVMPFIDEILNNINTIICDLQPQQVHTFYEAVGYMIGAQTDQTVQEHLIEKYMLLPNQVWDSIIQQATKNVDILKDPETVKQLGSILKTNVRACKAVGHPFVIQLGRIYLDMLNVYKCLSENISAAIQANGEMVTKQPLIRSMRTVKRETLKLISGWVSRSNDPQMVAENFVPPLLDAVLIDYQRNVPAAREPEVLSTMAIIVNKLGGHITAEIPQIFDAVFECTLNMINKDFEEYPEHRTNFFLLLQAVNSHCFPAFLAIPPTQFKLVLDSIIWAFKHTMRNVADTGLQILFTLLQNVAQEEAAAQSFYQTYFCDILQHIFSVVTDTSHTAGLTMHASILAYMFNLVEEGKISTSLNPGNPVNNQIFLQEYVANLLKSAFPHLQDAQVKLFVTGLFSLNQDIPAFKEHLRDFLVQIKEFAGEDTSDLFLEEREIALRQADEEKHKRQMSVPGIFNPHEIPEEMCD

For “NP-FLAG (wild-type nucleoprotein of influenza A/WSN/33) (from UniProt P15682 1-498) (natural protein)”, the CRM1 binding (%WT) was 100 % of WT.
